Assay results from patent publication US20120039802A1 (published 2012).

Experiments:
[1] = biological target: T1, cMet-Fc fusion protein (extracellular domain of the cMet receptor expressed as an Fc-fusion protein) (human, UniProt P08581 25-932); assay: phage ELISA, cMet-Fc vs TRAIL-Fc
T1 construct: extracellular domain; also called soluble cMet-Fc-fusion protein; soluble cMet receptor; not shown: Fc part
How it was run: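 Plates coated overnight at 4 C with 0.5 μg/mL cMet-Fc, or TRAIL-Fc as background, were blocked with 3% BSA in PBST. Peptide-displaying phage were bound 2 h at room temperature. Bound phage were detected with HRP-conjugated anti-M13 antibody.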

[2] = biological target: T2, human cMet expressed on 3T3 cells (human, UniProt P08581 25-1390); assay: whole cell phage ELISA, 3T3 human cMet vs 3T3
T2 construct: whole, on cells; cells fixed with glutaraldehyde; also called cell surface-expressed human cMet; 3T3 cells that over-express human cMet
T2 sequence (P08581 25-1390): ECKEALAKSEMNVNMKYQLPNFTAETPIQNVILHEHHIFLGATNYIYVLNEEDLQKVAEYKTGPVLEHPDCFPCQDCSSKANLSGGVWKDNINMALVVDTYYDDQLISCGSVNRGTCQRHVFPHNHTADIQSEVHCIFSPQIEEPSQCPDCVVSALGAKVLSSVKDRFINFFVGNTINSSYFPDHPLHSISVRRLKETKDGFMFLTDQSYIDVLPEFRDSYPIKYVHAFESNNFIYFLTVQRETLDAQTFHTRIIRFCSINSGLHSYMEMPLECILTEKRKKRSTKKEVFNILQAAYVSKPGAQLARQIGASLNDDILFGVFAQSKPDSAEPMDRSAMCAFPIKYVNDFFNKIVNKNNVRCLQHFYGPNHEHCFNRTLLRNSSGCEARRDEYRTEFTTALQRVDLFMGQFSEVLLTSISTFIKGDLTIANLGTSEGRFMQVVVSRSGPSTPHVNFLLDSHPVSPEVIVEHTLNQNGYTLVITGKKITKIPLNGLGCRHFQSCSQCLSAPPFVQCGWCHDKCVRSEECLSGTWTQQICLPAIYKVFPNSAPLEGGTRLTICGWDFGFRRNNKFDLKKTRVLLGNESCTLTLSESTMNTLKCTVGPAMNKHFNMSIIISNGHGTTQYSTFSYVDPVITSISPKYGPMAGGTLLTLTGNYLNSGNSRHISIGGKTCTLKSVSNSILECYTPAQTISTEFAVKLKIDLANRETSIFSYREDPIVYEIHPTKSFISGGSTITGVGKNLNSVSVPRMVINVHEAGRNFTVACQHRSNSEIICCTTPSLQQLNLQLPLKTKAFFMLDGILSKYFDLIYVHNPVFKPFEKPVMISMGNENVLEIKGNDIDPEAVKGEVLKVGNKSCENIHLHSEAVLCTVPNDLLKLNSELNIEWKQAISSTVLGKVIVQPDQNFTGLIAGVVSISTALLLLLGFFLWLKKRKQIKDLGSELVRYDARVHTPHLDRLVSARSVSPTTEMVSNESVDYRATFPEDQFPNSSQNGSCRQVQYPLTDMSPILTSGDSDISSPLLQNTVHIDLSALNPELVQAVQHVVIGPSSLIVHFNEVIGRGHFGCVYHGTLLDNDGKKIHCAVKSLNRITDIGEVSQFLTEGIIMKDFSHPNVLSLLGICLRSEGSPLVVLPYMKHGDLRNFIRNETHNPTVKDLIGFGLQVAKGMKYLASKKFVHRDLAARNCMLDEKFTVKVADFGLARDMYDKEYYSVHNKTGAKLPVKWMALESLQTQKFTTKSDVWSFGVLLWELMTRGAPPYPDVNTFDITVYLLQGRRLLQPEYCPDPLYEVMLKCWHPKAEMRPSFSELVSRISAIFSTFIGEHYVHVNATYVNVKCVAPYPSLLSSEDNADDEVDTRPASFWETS
How it was run: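 3T3 cells over-expressing human cMet, compared against parental 3T3, seeded at 10⁵ per well and fixed with 0.1% glutaraldehyde for 12 min at 37 C. Blocked peptide-displaying phage bound for 1 h at room temperature. After PBST washes, bound phage was detected with HRP-conjugated anti-M13 antibody.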

[3] = biological target: T1, cMet-Fc fusion protein (extracellular …); assay: phage ELISA on cMet-Fc, competitor HGF 100 ng/mL
How it was run: (§1)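 Plates coated with 0.5 μg/mL cMet-Fc, with TRAIL-Fc as background, then blocked with 3% BSA. Bound phage detected with HRP anti-M13 antibody.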

[4] = biological target: T1, cMet-Fc fusion protein (extracellular …); assay: phage ELISA on cMet-Fc, competitor HGF 500 ng/mL
How it was run: as §1

T1 sequence (P08581 25-932): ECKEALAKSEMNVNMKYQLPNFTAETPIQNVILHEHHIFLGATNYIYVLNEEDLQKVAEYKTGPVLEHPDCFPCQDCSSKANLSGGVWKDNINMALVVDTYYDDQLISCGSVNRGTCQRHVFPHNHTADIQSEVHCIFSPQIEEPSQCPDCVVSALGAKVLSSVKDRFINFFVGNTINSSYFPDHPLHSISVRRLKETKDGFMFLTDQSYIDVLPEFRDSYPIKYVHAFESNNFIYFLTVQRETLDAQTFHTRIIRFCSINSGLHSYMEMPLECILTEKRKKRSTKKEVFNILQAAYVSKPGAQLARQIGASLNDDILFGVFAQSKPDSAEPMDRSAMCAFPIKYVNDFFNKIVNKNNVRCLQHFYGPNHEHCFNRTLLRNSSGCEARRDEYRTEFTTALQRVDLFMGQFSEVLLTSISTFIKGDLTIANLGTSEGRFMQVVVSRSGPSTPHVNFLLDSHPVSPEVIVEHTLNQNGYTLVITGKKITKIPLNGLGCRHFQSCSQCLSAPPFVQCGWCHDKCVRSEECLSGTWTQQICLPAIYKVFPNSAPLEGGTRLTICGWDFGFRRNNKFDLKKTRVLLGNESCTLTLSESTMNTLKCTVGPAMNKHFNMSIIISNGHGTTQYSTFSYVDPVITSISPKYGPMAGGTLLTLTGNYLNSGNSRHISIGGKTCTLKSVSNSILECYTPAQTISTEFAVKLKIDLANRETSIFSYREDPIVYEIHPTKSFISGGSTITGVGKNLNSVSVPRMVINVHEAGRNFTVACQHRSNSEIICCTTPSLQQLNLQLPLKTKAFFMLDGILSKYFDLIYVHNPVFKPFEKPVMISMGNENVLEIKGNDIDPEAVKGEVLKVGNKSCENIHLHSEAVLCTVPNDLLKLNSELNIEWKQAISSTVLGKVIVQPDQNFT

| Binder | Protein ELISA (fold over background) [1] [fold] | WC ELISA (fold over background) [2] [fold] | % of binding in the absence of HGF [3] [%] | % of binding in the absence of HGF [4] [%] |
| --- | --- | --- | --- | --- |
| GSRFHCWQGDLMQTYCMPMAP [452-A03 peptide-displaying phage (SEQ ID NO: 376)] | 3 | 1.3 | 140 | 112 |
| GDPWWCFEKDSFIPFACWHHDP [330-G02 peptide-displaying phage (SEQ ID NO: 396)] | 7.4 | 1.3 | 37 | 31 |
| AGDGWCMAWPEICEWLGT [434-E12 peptide-displaying phage (SEQ ID NO: 014)] | 4.8 | 1.33 | 117 | 41 |
| GSELFCFYHHQGYEGCDVLAP [465-B07 peptide-displaying phage (SEQ ID NO: 385)] | 4.8 | 1.27 | 111 | 79 |
| AGGFACGPPWDICWMFGT [573-F04 peptide-displaying phage (SEQ ID NO: 011)] | 5.6 | 1.3 | 76 | 71 |
| GDYRMCQISDMWGNYECSSDDP [548-G05 peptide-displaying phage (SEQ ID NO: 400)] | 6.1 | 1.3 | 110 | 47 |
| GSAGWCYTMNYVDQLCTYMAP [445-E11 peptide-displaying phage (SEQ ID NO: 387)] | 3.7 | 1.43 | 69 | 79 |
| GDLLVCKFDDKFWTETCEWADP [549-G05 peptide-displaying phage (SEQ ID NO: 392)] | 23.7 | 1.47 | 28 | 21 |
| GSSARCDELINDFHSCLVMAP [445-E06 peptide-displaying phage (SEQ ID NO: 375)] | 4.3 | 1.33 | 83 | 73 |
| GDSYNCSWDSKTFEVTCLYADP [546-B01 peptide-displaying phage (SEQ ID NO: 393)] | 8.4 | 1.2 | 95 | 77 |
| GSLYRCLGEASPTPPCAYEAP [445-G12 peptide-displaying phage (SEQ ID NO: 380)] | 4 | 1.37 | 85 | 52 |
| GSDMNCTVLAQDQIFCFREAP [451-C06 peptide-displaying phage (SEQ ID NO: 386)] | 3 | 1.37 | 108 | 86 |
| GSGDPCSPGPSINGHCSVMAP [453-A05 peptide-displaying phage (SEQ ID NO: 382)] | 4.5 | 1.33 | 51 | 28 |
| GSQNNCEYGSRGSSFCLAMAP [465-C06 peptide-displaying phage (SEQ ID NO: 377)] | 6.4 | 1.23 | 184 | 104 |
| GDYYQCQFSKDMYSERCWPYDP [316-F08 peptide-displaying phage (SEQ ID NO: 397)] | 7 | 1.3 | 72 | 38 |
| GSTMSCWRWGRDAYSCNQMAP [557-A12 peptide-displaying phage (SEQ ID NO: 372)] | 4.6 | 1.37 | 87 | 62 |
| AGAWNCEYPTFICEWQGA [570-E07 peptide-displaying phage (SEQ ID NO: 012)] | 4.5 | 1.27 | 81 | 71 |

| Binder | Protein ELISA (fold over background) [1] [fold] | WC ELISA (fold over background) [2] [fold] | % of binding in the absence of HGF [3] [%] | % of binding in the absence of HGF [4] [%] |
| --- | --- | --- | --- | --- |
| GDNRFCSWVYNVDDWWCVDNDP [332-H09 peptide-displaying phage (SEQ ID NO: 398)] | 6.2 | 1.3 | 50 | 43 |
| AGNWICNLSEMRCYPKGT [456-E04 peptide-displaying phage (SEQ ID NO: 013)] | 3.9 | 1.4 | 82 | 81 |
| GDASWCDENSPAAWFYCELWDP [551-D02 peptide-displaying phage (SEQ ID NO: 394)] | 13.4 | 1.37 | 91 | 70 |
| GSFTACNKTSTTRQPCNPYAP [451-B12 peptide-displaying phage (SEQ ID NO: 384)] | 3.1 | 1.37 | 61 | 27 |
| GSMLGCLFEHQNKYDCYVLAP [443-D04 peptide-displaying phage (SEQ ID NO: 379)] | 3.2 | 1.43 | 69 | 73 |
| GSMNMCDTTDEISPTCHPSAP [441-H01 peptide-displaying phage (SEQ ID NO: 378)] | 3.6 | 1.4 | 91 | 69 |
| GSGMGCHQVNISTGDCAEDAP [442-E03 peptide-displaying phage (SEQ ID NO: 381)] | 3.9 | 1.43 | 130 | 81 |
| GSFFPCWRIDRFGYCHANAP [551-H10 peptide-displaying phage (SEQ ID NO: 370)] | 13.3 | 1.87 | 88 | 49 |
| GDYSECFFEPDSFEVKCYDRDP [545-H12 peptide-displaying phage (SEQ ID NO: 399)] | 11.3 | 1.3 | 74 | 60 |
| GSFWNCTTDLGAMSDCGFFAP [445-E07 peptide-displaying phage (SEQ ID NO: 383)] | 3.1 | 1.37 | 82 | 64 |
| GDDFHCEFIDDYQSEICYFNDP [333-C03 peptide-displaying phage (SEQ ID NO: 391)] | 12.4 | 1.37 | 52 | 43 |
| GSQQICDRKEYRFQACLSDAP [443-H10 peptide-displaying phage (SEQ ID NO: 371)] | 3.4 | 1.4 | 124 | 143 |
| GDLLGCGYQEKGGEYKCRFNDP [334-F05 peptide-displaying phage (SEQ ID NO: 395)] | 13.5 | 1.4 | 58 | 29 |
| GSSHCNQMITPWQNCGMRAP [446-E12 peptide-displaying phage (SEQ ID NO: 374)] | 3.3 | 1.37 | 73 | 83 |
| GSSQICAVYLDDTHNCERHAP [465-A03 peptide-displaying phage (SEQ ID NO: 373)] | 4 | 1.3 | 33 | 17 |
| GDYDYCDFDLETYIPECHSYDP [546-G02 peptide-displaying phage (SEQ ID NO: 390)] | 16.1 | 1.27 | 32 | 19 |
